Laboratory results as given in patent publication US7553821B2, “Methods for selectively modulating survivin apoptosis pathways” (Yale University, priority 2000, dated 2009).

What was measured:
caspase-9 [1] = target: T1, caspase-9 (Homo sapiens, UniProt P55211); assay: Co-immunoprecipitation of survivin and caspase-9 from HeLa cells; assay type: binding; conditions: viable HeLa cells 24 h after transfection
T1 construct: immunoprecipitated with an antibody to HA followed by Western blotting with an antibody to caspase-9; endogenous in cells; host or cells: HeLa
T1 sequence (P55211 1-416): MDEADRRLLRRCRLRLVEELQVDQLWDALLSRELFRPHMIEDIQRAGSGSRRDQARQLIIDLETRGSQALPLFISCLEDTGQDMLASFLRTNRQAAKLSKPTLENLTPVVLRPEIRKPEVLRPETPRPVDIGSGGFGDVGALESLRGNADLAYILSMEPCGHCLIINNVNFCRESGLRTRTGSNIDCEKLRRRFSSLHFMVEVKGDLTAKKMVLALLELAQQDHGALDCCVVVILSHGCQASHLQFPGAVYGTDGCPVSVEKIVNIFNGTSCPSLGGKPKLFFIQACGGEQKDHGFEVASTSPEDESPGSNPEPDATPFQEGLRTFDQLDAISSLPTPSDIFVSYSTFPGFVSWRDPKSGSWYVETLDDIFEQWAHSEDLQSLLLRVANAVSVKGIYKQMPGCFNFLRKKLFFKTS
Protocol: (§1) Asynchronously growing HeLa cells were transfected with HA-wild type survivin (WT) or HA-survivin(T34A) (T34A), detergent-solubilized after 24 h and immunoprecipitated with an antibody to HA followed by Western blotting with an antibody to caspase-9. Arrow, position of 46 kDa proform caspase-9.
(§2) HeLa cells were transfected with the indicated HA-constructs, synchronized to the G1/S boundary by a 16-h treatment with thymidine and released. Aliquots of the various cultures were immunoprecipitated at the indicated time intervals with an antibody to HA, and immunoblotted with antibodies to caspase-9 or HA. P, pellet; S, supernatant. For all panels, molecular weight markers are indicated on the left.
(§3) Transfection experiments. For transient transfection, HeLa cells in C-6 tissue culture plates (Costar, Cambridge, Mass.) at ˜60-70% confluency, were incubated in 1 ml of serum-free OptiMEM medium (Life Technologies, Gaithersburg, Md.) for 20 min, and transfected with 2.5 μg of the various plasmid cDNAs plus 9 μl Lipofectamine (Life Technologies). After a 5 h incubation at 37° C., the mixture was aspirated and substituted with complete growth medium for 48-72 h. […] Gated GFP-expressing cells were analyzed for DNA content by flow cytometry on a FACSort (Becton Dickinson, San Jose, Calif.) using a Cell Quest software. […]

caspase-9 [2] = assay: as above; assay type: binding; conditions: synchronized HeLa cells entering mitosis 12 h after thymidine release
Protocol: as §1, §2, §3

For “survivin(T34A): dominant-negative, non-phosphorylatable survivin mutant with Thr34→Ala substitution, expressed from transfected cDNA (also HA- or GFP-tagged)”, the “caspase-9 associated with HA immunoprecipitates by Western blotting” value (caspase-9 [1]) was “presence of associated ˜46 kDa proform caspase-9” and the “caspase-9 associated with HA immunoprecipitates by Western blotting” value (caspase-9 [2]) was “did not contain associated proform or active caspase-9 bands”.
